In patent publication US20260242478A1 (published 2026):
Where no end group is shown, it is not given here.

B1: Phage-3212 (peptide)
peptide: TVPLCKPLWMCYGF
modifications: cysteine pairing not given here; also: fused to phage pIII, linker and order not given here
notes: Peptide-180 library clone, tested as clonal phage supernatant; not shown: pIII filament protein of the bacteriophage, to which the peptide is fused
B2: Phage-3211 (peptide)
peptide: PEAMCRPTWMCAGF
modifications: cysteine pairing not given here; also: fused to phage pIII, linker and order not given here
notes: as for B1
B3: Phage-3209 (peptide)
peptide: DHHICRPAWMCMGL
modifications: cysteine pairing not given here; also: fused to phage pIII, linker and order not given here
notes: as for B1
B4: Phage-3210 (peptide)
peptide: DTPKCIPQWMCVGF
modifications: cysteine pairing not given here; also: fused to phage pIII, linker and order not given here
notes: as for B1
B5: Phage-3208 (peptide)
peptide: PFAYCVPQWMCEAF
modifications: cysteine pairing not given here; also: fused to phage pIII, linker and order not given here
notes: as for B1
B6: Phage-3239 (peptide)
peptide: DSVLCVPSWMCHGF
modifications: cysteine pairing not given here; also: fused to phage pIII, fusion site not given here

Columns and labels:
PSMA Fab (006 PSMA Fab) [1] = target: T1, PSMA Fab (006 PSMA Fab); test: phage ELISA; biotinylated PSMA Fab on neutravidin plate, clonal phage supernatant, anti-M13 HRP; blocking buffer alone
T1 construct: also called Anti-PSMA Fab; anti-PSMA Fab
Procedure: (§1) Clonal phage were harvested as crude supernatants and screened via standard ELISAs. […] Prior to the addition of clonal phage. wells were incubated with blocking buffer and PSMA antigen or blocking buffer alone. Without washing or aspirating, clonal phage supernatants were then added to the wells and incubated for a short time. Wells were then washed followed by detection of bound phage using a horse radish conjugated anti-M13 antibody.

PSMA Fab (006 PSMA Fab) [2] = target: T1, PSMA Fab (006 PSMA Fab); test: phage ELISA; biotinylated PSMA Fab on neutravidin plate pre-incubated with PSMA antigen as competitor, clonal phage supernatant, anti-M13 HRP
Procedure: as §1

PSMA Fab [3] = target: T2, PSMA Fab; test: clonal phage ELISA; biotinylated PSMA Fab on neutravidin plate; anti-M13 HRP detection
T2 construct: also called Anti-PSMA Fab; 006 PSMA Fab
Procedure: as §1

PSMA Fab [4] = target: T2, PSMA Fab; test: clonal phage ELISA; biotinylated PSMA Fab on neutravidin plate, wells pre-incubated with PSMA antigen as competitor; anti-M13 HRP detection;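 also: crude clonal phage supernatants added to antigen-treated wells without a wash, incubated briefly, then bound phage read out via horse radish–conjugated anti-M13 antibody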
Procedure: as §1

PSMA Fab [5] = target: T3, PSMA Fab; test: phage binding ELISA; biotinylated PSMA Fab on neutravidin plate, clonal phage supernatant, anti-M13 HRP detection; blocking buffer alone;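 also: before phage were added, wells were preincubated with blocking buffer either containing PSMA antigen or without it, and phage were then added with no wash in between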
T3 construct: also called Anti-PSMA Fab; 006 PSMA Fab
Procedure: as §1

PSMA Fab [6] = target: T3, PSMA Fab; test: phage binding ELISA; biotinylated PSMA Fab on neutravidin plate, wells pre-incubated with PSMA antigen as competitor, clonal phage supernatant, anti-M13 HRP detection
Procedure: as §1

Binder | Phage binding ELISA signal, Anti-PSMA Fab (PSMA Fab (006 PSMA Fab) [1]) | Phage binding ELISA signal, Anti-PSMA Fab with PSMA antigen (PSMA Fab (006 PSMA Fab) [2]) | Phage binding ELISA signal, Anti-PSMA Fab (PSMA Fab [3]) | Phage binding ELISA signal, Anti-PSMA Fab in presence of PSMA (PSMA Fab [4]) | also measured
QDIVCRPSWMCHGF [Phage-3246] | 1.94 | 0.0762 |  |  | 
VSIVCVPEWMCSGF [Phage-3262] |  |  | 1.92 | 0.0721 | 
AEMRCIPQWMCSGL [Phage-3259] |  |  | 1.92 | 0.138 | 
B1 |  |  |  |  | Phage binding ELISA signal, Anti-PSMA Fab (PSMA Fab [5]): 1.97; Phage binding ELISA signal, Anti-PSMA Fab in presence of PSMA (PSMA Fab [6]): 0.184
B2 |  |  |  |  | Phage binding ELISA signal, Anti-PSMA Fab (PSMA Fab [5]): 1.97; Phage binding ELISA signal, Anti-PSMA Fab in presence of PSMA (PSMA Fab [6]): 0.0674
IVPWCKPAWMCAVS [Phage-3255] |  |  | 1.93 | 0.12 | 
MMHNCIPYWMCAGF [Phage-3249] | 1.93 | 0.101 |  |  | 
VNVRCEPSWMCTGL [Phage-3243] | 1.94 | 0.0801 |  |  | 
MVERCIPVWMCEGF [Phage-3241] | 1.94 | 0.0937 |  |  | 
PTPVCKPGWMCDLF [Phage-3261] |  |  | 1.92 | 0.0845 | 
DGFICRPEWMCQWL [Phage-3256] |  |  | 1.93 | 0.0653 | 
NVPVCIPDWMCVGF [Phage-3250] | 1.93 | 0.0851 |  |  | 
MPMHCVPSWMCEGF [Phage-3252] | 1.93 | 0.0901 |  |  | 
GFRICEPEWMCVGF [Phage-3240] | 1.94 | 0.0629 |  |  | 
LSAMCVPPWMCTGF [Phage-3244] | 1.94 | 0.138 |  |  | 
ENVRCEPMWMCKGF [Phage-3260] |  |  | 1.92 | 0.0648 | 
B3 |  |  |  |  | Phage binding ELISA signal, Anti-PSMA Fab (PSMA Fab [5]): 1.97; Phage binding ELISA signal, Anti-PSMA Fab in presence of PSMA (PSMA Fab [6]): 0.0876
B4 |  |  |  |  | Phage binding ELISA signal, Anti-PSMA Fab (PSMA Fab [5]): 1.97; Phage binding ELISA signal, Anti-PSMA Fab in presence of PSMA (PSMA Fab [6]): 0.0677
GVIACKPHWMCTGF [Phage-3251] | 1.93 | 0.085 |  |  | 
YGALCVPAWMCSGF [Phage-3254] |  |  | 1.93 | 0.0866 | 
QPGYCVPQWMCMGF [Phage-3258] |  |  | 1.92 | 0.0948 | 
B5 |  |  |  |  | Phage binding ELISA signal, Anti-PSMA Fab (PSMA Fab [5]): 1.98; Phage binding ELISA signal, Anti-PSMA Fab in presence of PSMA (PSMA Fab [6]): 0.0639
B6 | 1.94 | 0.0834 |  |  | 
LGNLCVPPWMCQGF [Phage-3257] |  |  | 1.92 | 0.241 | 
VTHSCVPAWMCVGL [Phage-3248] | 1.93 | 0.091 |  |  | 
GLALCKPAWMCQGF [Phage-3247] | 1.93 | 0.0706 |  |  | 
ETSMCRPSWMCEGF [Phage-3242] | 1.94 | 0.0918 |  |  | 
NILRCEPMWMCTGF [Phage-3245] | 1.94 | 0.0977 |  |  | 
SIPKCMPEWMCIGL [Phage-3253] |  |  | 1.93 | 0.0587 | 
